Here are results for 2 substances from patent publication US12649776B2, “Scaffold proteins and therapeutic nanoconjugates based on nidogen” (UNIVERSITAT AUTÒNOMA DE BARCELONA, priority 2019, dated 2026).

For data set [1] the following is noted: literature value; cited from earlier work.
The next data set relates to CXCR4+ SW1417 cells. Nature of the data set: Protein internalization of EPIX4 / T22 / biparatopic nanoparticles (flow cytometry). To be noted: 1 μM. It counts as cell-based, human. As to the method: (§1) Experiments were performed in CXCR4+ cervical and colorectal cell lines (HeLa and SW1417, respectively). HeLa cells were cultured in Eagle's Minimum Essential Medium (Gibco) and SW1417 in Dulbecco's Modified Eagle's Medium (Gibco). Both cell lines were supplemented with 10% fetal bovine serum (Gibco) and incubated in a humidified atmosphere at 37° C. and 5% (HeLa) or 10% (SW1417) of CO2.
(§2) For testing protein internalization, cells were seeded in 24-well plates (Nunc) (30000 cells wells^−1) for 24 h. Briefly, the medium was removed, and cells were washed with PBS. Then protein was incubated at 1 and 2 μM, diluted in OptiPro medium supplemented with L-Glutamine and incubated at different times, at suitable cell line conditions. Then, harsh trypsin digestion (1 mg ml^−1 for 15 min) (Gibco) was carried out to remove protein particles bound to the outer size of the cell membranes. Intracellular green fluorescence was analyzed by flow cytometry on an FACS-Calibur system (Becton Dickinson) using a 15 mW air-cooled argon ion laser at 488 nm excitation. Fluorescence emission was measured with a D detector (530/30 nm band pass filter), and manually corrected by the specific fluorescence of purified protein, to get data representative of the amount of internalized protein for comparative purposes. […]

For the next data set, the system named is CXCR4+ HeLa cells. Nature of the data set: Protein internalization of EPIX4 / T22 / biparatopic nanoparticles (flow cytometry, AMD3100 competition, confocal). It counts as cell-based, human. To be noted: 1 μM. As to the method:
as §1, §2
On the technique in general: Flow cytometry measures light scatter and fluorescence of single cells or particles in a stream.

The nature of data set [2]: Volume size distribution of protein nanoparticles and nanoconjugates by Dynamic Light Scattering (DLS). The note with it: self-assembled material in storage (carbonate) buffer. It counts as physicochemical. As to the method: Volume size distribution of all protein nanoparticles and nanoconjugates were determined by Dynamic Light Scattering (DLS) at 633 nm in a Zetasizer Nano ZS (Malvern Instruments) in triplicate.
Volume size distribution of protein nanoparticles was determined in a Zetasizer Nano ZS (Malvern Instruments) by Dynamic Light Scattering (DLS) at 633 nm in triplicates.
The integrity of the recombinant proteins was checked by mass spectrometry (MALDI-TOF), TGX (Tris-Glycine eXtended) Stain-Free acrylamide gels electrophoresis (BioRad) and Western Blot analysis using anti-His monoclonal antibody (1:1000; Santa Cruz, ref. 57598). Protein concentration was determined by Bradford (Biorad) assay with an Albumin (Roche) standard curve. GFP fluorescence emission (510 nm) was determined on purified proteins with a Cary Eclipse fluorescence spectrophotometer (Agilent Technologies) using an excitation wavelength of 450 nm. The volume and size distribution of nanoparticles were measured by dynamic light scattering (DLS) at 633 nm through a Zetasizer Nano ZS (Malvern Instruments) using quartz cuvettes.

Turning to “Human Collagen Type I: human collagen type I, literature comparator (Leikina et al)”, in data set [1], the Tm was 40.3° C.^ and the “Tonset, 1” value is 38.2 °C.

With “T22-GFP-H6: Modular protein: T22 ligand, Green Fluorescent Protein scaffold, C-terminal poly-histidine [reference compound]”, the “Tonset, 1” value in data set [1] was 75 °C. The “Time course of cell uptake” value in the data set on CXCR4+ SW1417 cells and in the data set with CXCR4+ HeLa cells was “high uptake at short times” in each case. Further, in data set [2], the “Nanoparticle size (volume size distribution, DLS)” value is about 11 nm.
